Experimental data reported in US20200353078A1.
Residue numbers refer to the chain shown, from its start.

T1: Human IL-33 Flag®His (human)
T1 sequence: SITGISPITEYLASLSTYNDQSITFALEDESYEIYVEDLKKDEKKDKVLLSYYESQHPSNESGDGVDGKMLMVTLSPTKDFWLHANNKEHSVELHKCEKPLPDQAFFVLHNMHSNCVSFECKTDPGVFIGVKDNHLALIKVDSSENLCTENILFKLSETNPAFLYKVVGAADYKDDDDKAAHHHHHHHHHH

B1: IL330020 scFv (scFv, part only; not given: linker, domain order and tags, V domains shown, not shown: another chain or arm of the molecule; small tags and cut ends)
VH: QVQLVQSGAEVKKPGASVKVSCKASGYTFTSYGISWVRQAPGQGLEWMGWISDYQGYTKYAEKFQGRVTMTTDTSTNTAYMELRSLRSDDTAVYYCARLYSSGWIRQYHFDYWGRGTLVTVSS
VL: SYELTQPPSVSVSPGQTASITCSGDNLKDKYVSWYQQKPGQAPVLVLYQDRKRPSGIPERFSGSNSGNTATLTISGTQAMDEADYYCQAWDSGTAFGGGTKVTVL
B2: IL330259 scFv (scFv, part only; not given: linker, domain order and tags, V domains shown, not shown: another chain or arm of the molecule; small tags and cut ends)
VH: EVQLLESGGGLVQPGGSLRLSCAASGFTFSSYAMSWVRQAPGKGLEWVSASTPWQGSTYYADSVKGRFTISRDNSKNTLYLQMNSLRAEDTAVYYCVRVVAGYFDSWGRGTLVTVSS
VL: SYVLTQPPSVSVSPGQTARITCSGDALPKQYAHWYQQKPGQAPALVIYKDTERPSGIPERFSGSSSGTTVTLTISGVQAEDEADYYCQSADSSGASRVFGGGTKVTVL
B3: IL33-02 (ligand)
chain: MHHHHHHHHHHAAGLNDIFEAQKIEWHEAAIEGRSITGISPITEYLASLSTYNDQSITFALEDESYEIYVEDLKKDEKKDKVLLSYYESQHPSNESGDGVDGKMLMVTLSPTKDFWLHANNKEHSVELHKSEKPLPDQAFFVLHNMHSNCVSFECKTDPGVFIGVKDNHLALIKVDSSENLCTENILFKLSET
B4: IL33-12 (ligand)
chain: B3 chain with C150S, C155S
B5: IL33-15 (ligand)
chain: B3 chain with S131C, C150S, C155S, C182S
B6: IL33-10 (ligand)
chain: B3 chain with S131C, C150S, C155S
B7: IL33-08 (ligand)
chain: B3 chain with C155S
B8: IL33-06 (ligand)
chain: B3 chain with C150S
B9: IL33-05 (ligand)
chain: B3 chain with S131C, C182S
B10: IL33-09 (ligand)
chain: B3 chain with S131C, C150S, C182S
B11: IL33-04 (ligand)
chain: B3 chain with S131C, C155S
B12: IL33-03 (ligand)
chain: B3 chain with S131C, C150S
B13: IL33-14 (ligand)
chain: B3 chain with C155S, C182S
B14: IL33-16 (ligand)
chain: B3 chain with C150S, C155S, C182S
B15: IL33-13 (ligand)
chain: B3 chain with C150S, C182S
B16: IL33-07 (ligand)
chain: B3 chain with S131C, C155S, C182S

target: T1, Human IL-33 Flag®His (human); experiment: HTRF competition: purified scFv titrated against human ST2-Fc for FLAG-His human IL-33

IC50 (read off the curve) [nM]	Binder
100	B1

target: Human IL-33 (Axxora/Adipogen AG-40B-0038) (human) (UniProt O95760); experiment: HTRF epitope competition: purified scFv against IL330101 IgG for biotinylated human IL-33

IC50 (read off the curve) [nM]	Binder
7	B2

target: ST2 on human umbilical vein endothelial cells (human) (UniProt Q01638); experiment: cell-based or functional assay
Sequence (Q01638 19-556): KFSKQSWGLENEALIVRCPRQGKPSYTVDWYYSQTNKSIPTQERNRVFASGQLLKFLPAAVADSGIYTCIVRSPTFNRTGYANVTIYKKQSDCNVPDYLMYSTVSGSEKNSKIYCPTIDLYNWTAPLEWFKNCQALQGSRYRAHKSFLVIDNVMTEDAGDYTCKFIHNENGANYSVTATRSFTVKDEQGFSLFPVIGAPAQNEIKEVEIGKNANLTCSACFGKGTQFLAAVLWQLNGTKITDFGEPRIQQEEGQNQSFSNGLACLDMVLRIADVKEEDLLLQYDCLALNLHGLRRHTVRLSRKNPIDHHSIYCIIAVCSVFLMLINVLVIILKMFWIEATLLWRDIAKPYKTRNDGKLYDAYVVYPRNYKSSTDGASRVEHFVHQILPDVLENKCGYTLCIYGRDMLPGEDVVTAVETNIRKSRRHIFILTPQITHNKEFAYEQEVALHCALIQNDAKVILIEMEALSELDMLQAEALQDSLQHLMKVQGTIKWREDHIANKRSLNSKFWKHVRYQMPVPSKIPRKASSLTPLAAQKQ

IC50 (nM) Untreated, HUVEC NFkB translocation assay [nM]	Binder
0.19	B3
0.39	B4
0.12	B5
0.61	B6
0.21	B7
0.28	B8
0.1	B9
0.2	B10
0.17	B11
0.16	B12
0.14	B13
0.17	B14
0.08	B15
0.22	B16
